1 molecule from paper PMC1713233 (2006) can be followed below.

The target in this assay is T1, Trypsin Soybean Inhibitor (TSI) (Glycine max, UniProt P01070).
T1 chain: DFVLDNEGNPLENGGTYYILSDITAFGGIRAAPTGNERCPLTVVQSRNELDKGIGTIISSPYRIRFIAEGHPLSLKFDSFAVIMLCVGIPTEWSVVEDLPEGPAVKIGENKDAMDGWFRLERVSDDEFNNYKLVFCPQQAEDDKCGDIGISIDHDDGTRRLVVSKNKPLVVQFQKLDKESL
Put plainly: enzyme inhibition assay (BAPNA substrate, Cheng-Prusoff).

B1: Implantation serine proteinase complex (ISP1-ISP2) (protein)
chain 1: KPVGIVGGQRTPPGKWPWQVSLRMYSYEVNSWVHICGGSIIHPQWILTAAHCIQSQDADPAVYRVQVGEVYLYKEQELLNISRIIIHPDYNDVSKRFDLALMQLTALLVTSTNVSPVSLPKDSSTFDSTDQCWLVGWGNLLQRVPLQPPYQLHEVKIPIQDNKSCKRAYRKKSSDEHKAVAIFDDMLCAGTSGRGPCFGDSGGPLVCWKSNKWIQVGVVSKGIDCSNNLPSIFSRVQSSLAWIHQHIQ
chain 2: not shown
As to B1, the Ki is 2180 nM.
